The values below come from patent publication US20250250301A1, “DE NOVO DESIGNED BINDERS TARGETING HUMAN EPCAM AND PDL1 RECEPTORS” (University of Washington, priority 2022, published 2025).

Where no end group is shown, it is not given here. AF594 = Alexa Fluor 594

The subject of one assay is PDL1+SKOV3 cells. Description: Cell binding assay with AF594-labeled binder, SKOV3 cells. The format is cell-based, human. On the procedure:
FIG. 3. Cell binding assay. Binding of control antibodies are shown on the top and the binding for the designed binders are shown the bottom. […] These proteins bind their targets with low to mid nanomolar affinities based on octet data (see FIG. 2A-C). […] The rest of the designs with and without conjugated AF594 are well behaved, remain folded to 60-70° C., and completely refold upon cooling to room temperature. We show sequence, secondary structure information, and interface positions for EpcamBind1_cb4, EpcamBind2_cb10, and, PDL1Bind_cb6 in FIG. 5.

For assay [1], the target named is T1, human programmed death-ligand 1 (PDL1) receptor, extracellular portion (human, UniProt Q9NZQ7 19-238).
T1 construct: extracellular domain; also called human PDL1
T1 sequence (Q9NZQ7 19-238): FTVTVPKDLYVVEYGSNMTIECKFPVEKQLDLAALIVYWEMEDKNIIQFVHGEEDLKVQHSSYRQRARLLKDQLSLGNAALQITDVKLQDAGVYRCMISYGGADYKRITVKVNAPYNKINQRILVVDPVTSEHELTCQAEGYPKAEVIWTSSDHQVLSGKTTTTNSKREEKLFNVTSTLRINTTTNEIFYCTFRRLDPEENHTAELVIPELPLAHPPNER
The assay is described as follows: yeast surface display screen.

The target in assay [2] is T2, human epithelial cell adhesion molecule (EpCAM) receptor, extracellular portion (human, UniProt P16422 24-265).
T2 construct: extracellular domain; also called human EpCAM receptor
T2 sequence (looked up): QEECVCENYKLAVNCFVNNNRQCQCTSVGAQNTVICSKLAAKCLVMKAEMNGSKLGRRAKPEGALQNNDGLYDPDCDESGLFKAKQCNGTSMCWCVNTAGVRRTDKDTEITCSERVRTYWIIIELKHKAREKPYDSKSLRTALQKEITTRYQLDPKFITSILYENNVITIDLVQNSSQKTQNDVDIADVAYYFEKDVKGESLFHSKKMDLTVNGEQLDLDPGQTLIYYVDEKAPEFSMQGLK
The assay is described as follows: Octet (BLI), kinetic fitting to association and dissociation; binder 100 nM to 1.56 nM. As for the experimental part:
FIG. 2A. Octet data for EpcamBind1_cb4. […] Concentrations span a range from 100 nM (top curve) to 1.56 nM (bottom curve) by two-fold dilution.
(§1) In one embodiment of any of the polypeptides of the disclosure, the polypeptide bind to their targets with nanomolar affinity as measured by octet. In the octet experiments, the target protein is immobilized onto an octet sensor and the kinetics of the binder binding to the target are measured over a range of binder concentrations to determine the binders affinity.
Background: In BLI a coated tip is dipped into the sample, and binding shifts an interference pattern.

Assay [3] concerns the target T1, human programmed death-ligand 1 (PDL1) …. The assay is described as follows: Octet (BLI), steady state analysis.
Assay [4] has as its target T2, human epithelial cell adhesion molecule …. The assay is described as follows: Octet (BLI), kinetic fitting to association and dissociation; binder 1000 nM to 15.6 nM. On the procedure: FIG. 2B. Octet data for EpcamBind2_cb10. […] Concentrations span a range from 1000 nM (top curve) to 15.6 nM (bottom curve) by two-fold dilution.
as §1

Assay [5] shares this target. The assay is described as follows: yeast surface display screen.
The target is the same in assay [6]. Description: Octet (BLI), kinetic fitting to association and dissociation; binder 20 nM to 0.5 nM. On the procedure:
FIG. 4. Octet data for gs linked dimer of EpCAMBind1_cterm_cys. […] Concentrations from top curve to bottom curve are 20 nM, 10 nM, 5 nM, 2.5 nM, 1 nM and 0.5 nM.
as §1

The target in another assay is T3, human EpCAM receptor (Homo sapiens, UniProt P16422).
T3 sequence (P16422 24-265 limits assumed): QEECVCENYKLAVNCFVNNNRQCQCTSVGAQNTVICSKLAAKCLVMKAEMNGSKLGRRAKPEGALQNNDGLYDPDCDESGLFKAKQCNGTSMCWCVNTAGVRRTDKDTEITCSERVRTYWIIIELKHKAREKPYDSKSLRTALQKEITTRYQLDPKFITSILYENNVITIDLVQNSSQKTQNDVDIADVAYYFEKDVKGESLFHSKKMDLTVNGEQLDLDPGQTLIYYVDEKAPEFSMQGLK
Description: Octet binding to immobilized human EpCAM. As for the experimental part: as §1

In assay [7] the target is T4, PDL1 on PDL1+ SKOV3 cells (human, UniProt Q9NZQ7 19-290).
T4 construct: whole, on cells
T4 sequence (Q9NZQ7 19-290): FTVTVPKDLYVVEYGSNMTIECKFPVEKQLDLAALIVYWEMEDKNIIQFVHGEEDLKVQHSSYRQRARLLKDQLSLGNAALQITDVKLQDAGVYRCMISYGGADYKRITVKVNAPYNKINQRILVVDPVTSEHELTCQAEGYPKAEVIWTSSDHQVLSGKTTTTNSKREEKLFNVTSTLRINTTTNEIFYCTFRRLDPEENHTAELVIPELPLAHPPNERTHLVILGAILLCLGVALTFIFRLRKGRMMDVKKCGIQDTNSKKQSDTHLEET
Description: flow cytometry on PDL1 (+) cells (PDL1+ SKOV3), binder at 500 nM and 5 uM by the legend, fluorescence at 561 nm.

On to “PDL1Bind1_E39C-AF594 (DEDTDRVFELLNEFNELREEGDPERAREVLEEAERLAKCLSDPTLESFVQAIKRVY)”, for which, in the assay on PDL1+SKOV3 cells (500 nM and 5 uM), the “binding to PDL1+SKOV3 cells” value is “specifically binds”. Also, the “nonspecific binding to PDL1− cells” value in the assay on PDL1+SKOV3 cells (5 uM, comparable to control antibody) was “some minor nonspecific binding”.

B1: Pdl1Bind (designed binder)
chain: DEDTRRVMELLHEASELREEGDPERAREVLEEAERLAKELGDPSLERFVQAHKRVY
Consider B1, for which, in assay [1], the binding result is given as “binds”.

B2: EpcamBind1_cb4 (designed binder)
chain: DEERLRELVEELVKELGLSERYKRTLERHLRTALEQGYDEEQIRMNLEQLAQQAREI
notes: Optimized de novo miniprotein (three helices) against human EpCAM
The Kd is the constant that tells how readily two partners part at equilibrium. High values mean lower affinity, low ones higher affinity. With B2, in [2], the dissociation constant Kd amounted to 5.6 nM.

B3: PDL1Bind_cb6 (designed binder)
chain: DEDTDRVFELLNEFNELREEGDPERAREVLEEAERLAKELSDPTLESFVQAIKRVY
notes: Optimized de novo miniprotein against human PDL1
Molecule B3 registered a dissociation constant Kd in assay [3] of 2 nM.

B4: EpcamBind2_cb10 (designed binder)
chain: DEVQHEVHELMVRIHSLVVRGNPEEARKLLEELEELAKKTNNPSYHIAVEALEHVIN
notes: Optimized de novo miniprotein against human EpCAM
Consider B4, for which the affinity in assay [4], expressed as Kd, was 500 nM.

B5: EpcamBind2 (designed binder)
chain: DEVQHEVHELFVRIQELVVRGNPEEARKLLEELEELAKKYNDPSLHIAVEALERVIN
As for B5, the binding result in assay [5] was “binds”.

B6: gs linked dimer of EpCAMBind1_cterm_cys (designed binder)
chain: DEERLRELVEELVKELGLSERYKRTLERHLRTALEQGYDEEQIRMNLEQLAQQAREIGGSGGSDEERLRELVEELVKELGLSERYKRTLERHLRTALEQGYDEEQIRMNLEQLAQQAREI
notes: also called EpCAM1_dimer
The molecule B6 showed a Kd in assay [6] of less than 0.01 nM.

B7: gs linked dimer of EpCAMBind1_cterm_cys: gs linked fusion dimer of EpCAMBind1; possibly related to EpCAM1_dimer, SEQ ID NO:18 (protein)
chain: DEERLRELVEELVKELGLSERYKRTLERHLRTALEQGYDEEQIRMNLEQLAQQAREIGGSGGSDEERLRELVEELVKELGLSERYKRTLERHLRTALEQGYDEEQIRMNLEQLAQQAREI
On to B7, for which the “binding affinity in words, EpCAM” value in the assay with human EpCAM receptor was “low picomolar”. In addition, in the assay with human EpCAM receptor (kinetic fitting to association and dissociation, 20 nM to 0.5 nM), the “estimated Kd” value was less than 0.01 nM.

B8: PDL1Bind1_E39C-AF594 (designed binder)
chain: DEDTDRVFELLNEFNELREEGDPERAREVLEEAERLAKC(AF594)LSDPTLESFVQAIKRVY
With B8, the binding result in assay [7] is “binds”.
